B1: 6× His human Eps15-MD (530–791) [human] / human β2-appendage (700–937) used for ITC [human] (parent complex)
chain 1: STSSSETANLNEHVEGQSNLESEPIHQESPARSSPELLPSGVTDENEVTTAVTEKVCSELDNNRHSKEEDPFNVDSSSLTGPVADTNLDFFQSDPFVGSDPFKDDPFGKIDPFGGDPFKGSDPFASDCFFRQSTDPFATSSTDPFSAANNSSITSVETLKHNDPFAPGGTVVAASDSATDPFASVFGNESFGGGFADFSTLSKVNNEDPFRSATSSSVSNVVITKNVFEETSVKSEDEPPALPPKIGTPTRPCPLPPGKRSI
chain 2: IGMAPGGYVAPKAVWLPAVKAKGLEISGTFTHRQGHIYMEMNFTNKALQHMTDFAIQFNKNSFGVIPSTPLAIHTPLMPNQSIDVSLPLNTLGPVMKMEPLNNLQVAVKNNIDVFYFSCLIPLNVLFVEDGKMERQVFLATWKDIPNENELQFQIKECHLNADTVSSKLQNNNVYTIAKRNVEGQDMLYQSLKLTNGIWILAELRIQPGNPNYTLSLKCRAPEVSQYIYQVYDSILKN
B2: Eps15 P-short peptide [not stated] / human β2-appendage (700–937) used for ITC [human] (parent complex)
chain 1: SFGDGFADFSTL
chain 2: B1 chain 2
B3: β-arrestin P-long peptide [not stated] / human β2-appendage (700–937) used for ITC [human] (parent complex)
chain 1: DDDIVFEDFARQRLKGMKDD
chain 2: B1 chain 2

Variants of: B1
Assay: ITC; stoichiometry (1.9)

| Kd [µM] | Variant |
| --- | --- |
| 11 | chain 2 IGMAPGGYVAPKAVWLPAVKAKGLEISGTFTHRQGHIYMEMNFTNKALQHMTDFAIQFNKNSFGVIPSTPLAIHTPLMPNQSIDVSLPLNTLGPVMKMEPLNNLQVAVKNNIDVFYFSCLIPLNVLFVEDGKMERQVFLATWKDIPNENELQFQIKECHLNADTVSSKLQNNNVYTIAKRNVEGQDMLVQSLKLTNGIWILAELRIQPGNPNYTLSLKCRAPEVSQYIYQVYDSILKN [chain 2 Y189V] |

Variants of: B2
Assay: ITC

| Kd [µM] | Variant |
| --- | --- |
| 59 | chain 2 IGMAPGGYVAPKAVWLPAVKAKGLEISGTFTHRQGHIYMEMNFTNKALQHMTDFAIQFNKNSFGVIPSTPLAIHTPLMPNQSIDVSLPLNTLGPVMKMEPLNNLQVAVKNNIDVFYFSCLIPLNVLFVEDGKMERQVFLATWKDIPNENELQFQIKECHLNADTVSSKLQNNNVYTIAKRNVEGQDMLVQSLKLTNGIWILAELRIQPGNPNYTLSLKCRAPEVSQYIYQVYDSILKN [chain 2 Y189V] |

Variants of: B3
Assay: ITC

| Kd [µM] | Variant |
| --- | --- |
| 1.7 | chain 2 IGMAPGGYVAPKAVWLPAVKAKGLEISGTFTHRQGHIYMEMNFTNKALQHMTDFAIQFNKNSFGVIPSTPLAIHTPLMPNQSIDVSLPLNTLGPVMKMEPLNNLQVAVKNNIDVFAFSCLIPLNVLFVEDGKMERQVFLATWKDIPNENELQFQIKECHLNADTVSSKLQNNNVYTIAKRNVEGQDMLYQSLKLTNGIWILAELRIQPGNPNYTLSLKCRAPEVSQYIYQVYDSILKN [chain 2 Y116A] |

Variants of: B3
Assay: ITC; stoichiometry (1.2)

| Kd [µM] | Variant |
| --- | --- |
| 0.17 | chain 2 IGMAPGGYVAPKAVWLPAVKAKGLEISGTFTHRQGHIYMEMNFTNKALQHMTDFAIQFNKNSFGVIPSTPLAIHTPLMPNQSIDVSLPLNTLGPVMKMEPLNNLQVAVKNNIDVFYFSCLIPLNVLFVEDGKMERQVFLATWKDIPNENELQFQIKECHLNADTVSSKLQNNNVYTIAKANVEGQDMLYQSLKLTNGIWILAELRIQPGNPNYTLSLKCRAPEVSQYIYQVYDSILKN [chain 2 R180A] |

Reference: article PMC1540706 (2006)
